Broadly, the Kd is the equilibrium constant for the complex coming apart.

The values below come from article PMC9050506 (RSC Advances, 2020).

For test [1], the system named is dimannosylated peptide P2 (DM). Type of test: binding.
For test [2] the following is noted: binding partner not given; cited from earlier work.

Regarding “CVN2L0-V2: CVN2L0 variant with one C58E–C73R substitution, three disulfide bonds”, the “Rmax, binding to DM” value in test [1] (SPR sensorgrams Fig. 3E-F) is reported as 132 RU.

B1: CVN2L0-V4: CVN2L0 variant with Cys–Cys mutagenesis to Trp–Met and Glu–Arg, two disulfide bonds (protein)
chain: LGKFSQTCYNSAIQGSVLTSTCERTNGGYNTSSIDLNSVIENVDGSLKWQPSNFIETWRNTQLAGSSELAAEMKTRAQQFVSTKINLDDHIANIDGTLKYELGKFSQTCYNSAIQGSVLTSTCERTNGGYNTSSIDLNSVIENVDGSLKWQPSNFIETERNTQLAGSSELAAERKTRAQQFVSTKINLDDHIANIDGTLKYE
modifications: left off: His6, N-terminal, state not stated
For the molecule B1, the “binding to DM (in words)” value in test [1] (SPR, listed as V4) is “showed binding”.

B2: wild-type CV-N: 11 kDa lectin originating from Nostoc ellipsosporum (protein, UniProt P81180 1-101, looked up)
Cyanovirin-N: LGKFSQTCYNSAIQGSVLTSTCERTNGGYNTSSIDLNSVIENVDGSLKWQPSNFIETCRNTQLAGSSELAAECKTRAQQFVSTKINLDDHIANIDGTLKYE
On to B2, for which the Kd in test [2] is 5.7 nM.
